Consider 84 variants from the RNAGym collection of RNA variant scans (doi:10.1093/molbev/msab373).

B1: Azoarcus group I ribozyme (parent)
chain: GUGCCUUGCGCCGGGAAACCACGCAAGGGAUGGUGUCAAAUUCGGCGAAACCUAAGCGCCCGCCCGGGCGUAUGGCAACGCCGAGCCAAGCUUCGGCGCCUGCGCCGAUGAAGGUGUAGAGACUAGACGGCACCCACCUAAGGCAAACGCUAUGGUGAAGGCAUAGUCCAGGGAGUGGCGAAAGUCACACAAACCGG

In this data set the parent is B1. Briefly: reverse-splicing fitness (ratio to wild type); higher = more active; in vitro selection; Mg2+ level not given. A digest of the protocol: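 An in vitro group I ribozyme library with randomized positions was T7-transcribed and gel-purified. In triplicate, 10 pmol RNA in EPPS pH 7.5 was reacted with 50 pmoles of a 30-nt RNA substrate for 1 h at 37 °C across several added MgCl2 levels (1–48 mM), then stopped with EDTA. Products were reverse transcribed from a substrate-complementary primer, PCR-amplified and sequenced (HiSeq 4000). Fitness is a variant's read proportion after selection over that before, normalised to wild type.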
Take C82G A111G A120U A145C C150U C169G U176C: the reverse-splicing fitness is 0.0031.

With C82G A111G A120U A145G C169G U176A, the reverse-splicing fitness is 0.00491.

Take C82A A111U A120C C150U C169U U176A: the reverse-splicing fitness worked out at 0.0156.

In the case of C82A A111U U176C, the reverse-splicing fitness was 0.158.

Take C82U A120G C150A C169A U176G: the reverse-splicing fitness is 0.00477.

Regarding C82U A120C A145G C150U C169A U176A, the reverse-splicing fitness worked out at 0.0152.

On to C82U A111U A120G A145U C150U C169G U176A, for which the reverse-splicing fitness stood at 0.0119.

For C82G A111U A120U C150G C169U, the reverse-splicing fitness amounted to 0.00549.

Take A120G A145U C169U: the reverse-splicing fitness is 0.446.

For C82G A111G A120U C150A C169U U176C, the reverse-splicing fitness stood at 0.00456.

Take A111G A120C A145U C150A C169G U176A: the reverse-splicing fitness was 0.0144.

As to C82A A111C A120U A145G C150U C169A U176G, the reverse-splicing fitness was determined as 0.00324.

For the variant A111U A120G A145C C150U C169U U176G, the reverse-splicing fitness was determined as 0.00469.

On to C82U A111G A120G A145C C150U U176C, for which the reverse-splicing fitness came to 0.00908.

As for C82A A111C C150G C169G U176G, the reverse-splicing fitness came to 0.00585.

For the variant C82G A120G A145U C150G C169U U176A, the reverse-splicing fitness amounted to 0.0125.

On to A111U A120C C150G C169G U176C, for which the reverse-splicing fitness was determined as 0.00491.

A120G A145U C150G C169A: the reverse-splicing fitness stood at 0.0517.

C82A A111C A120G C169G U176C: the reverse-splicing fitness was 0.0214.

With C82G A111U A120G A145C C169A U176A, the reverse-splicing fitness is 0.0152.

C82U A111U A120U A145U C150A C169G: the reverse-splicing fitness was 0.00254.

For C82U A111G A145C C150A C169U U176G, the reverse-splicing fitness was found to be 0.00504.

For C82G A111U C150A, the reverse-splicing fitness was 0.0323.

Turning to C82A A111U A120G A145C C150G C169G, the reverse-splicing fitness was determined as 0.00674.

On to C82G A111C A120C A145G C150U C169G U176A, for which the reverse-splicing fitness stood at 0.0122.

For A145G C169G, the reverse-splicing fitness is 0.302.

With C82U C150A C169G U176C, the reverse-splicing fitness was 0.0184.

A120U A145C C150U C169G: the reverse-splicing fitness was determined as 0.0691.

For the variant A111U A120G A145G C150G C169G, the reverse-splicing fitness turned out to be 0.0234.

As for C82G A111U A120C C150G C169U U176C, the reverse-splicing fitness was 0.013.

With C82G A111G A120U A145G C150G C169A U176C, the reverse-splicing fitness was 0.0099.

Regarding C82G A111C A120G A145C C150U U176C, the reverse-splicing fitness is 0.0125.

With C82U A111U A120U A145C C150A C169A, the reverse-splicing fitness stood at 0.00214.

Regarding C82U A111U A120U A145U C150U U176C, the reverse-splicing fitness was 0.00855.

Consider C82G A111U A120U A145G C150A C169G, for which the reverse-splicing fitness worked out at 0.00555.

On to A145G C150G C169G, for which the reverse-splicing fitness came out at 0.0446.

Take A145U C150G U176A: the reverse-splicing fitness stood at 0.326.

As for A120U C150G C169G U176A, the reverse-splicing fitness came to 0.00487.

In the case of C82A A111G C169A U176A, the reverse-splicing fitness was found to be 0.0155.

With C82A A111U A120U C150G C169G U176C, the reverse-splicing fitness stood at 0.00289.

As for C82G A111G A120C C150U C169G U176A, the reverse-splicing fitness was determined as 0.0185.

On to C82U A111U A145C C150U C169A U176C, for which the reverse-splicing fitness amounted to 0.00663.

Turning to C82U A111C A145C C150A C169A U176C, the reverse-splicing fitness came out at 0.00874.

As for C82A A111U A120U A145C C150A U176C, the reverse-splicing fitness came to 0.00426.

In the case of C82G A111U A120C A145G C150G U176G, the reverse-splicing fitness worked out at 0.00789.

As to A111C A145G C150G C169U U176A, the reverse-splicing fitness was found to be 0.0107.

For the variant C82A A111U A120C C150A, the reverse-splicing fitness amounted to 0.0118.

Take A111G A120U A145U U176C: the reverse-splicing fitness is 0.431.

Turning to C82U A111G A120U A145C C150U C169U U176A, the reverse-splicing fitness worked out at 0.00264.

Consider C82A A145C C150G C169A, for which the reverse-splicing fitness was determined as 0.00909.

Turning to C82U A120U C150G C169A, the reverse-splicing fitness worked out at 0.00679.

Take C82U A111U A145G C150U C169U: the reverse-splicing fitness was found to be 0.0113.

Consider C82G A111C A145U C150A U176A, for which the reverse-splicing fitness amounted to 0.0202.

For C82U A111U A120C A145U C150A C169U U176G, the reverse-splicing fitness worked out at 0.00498.

On to C82U A111C A145U C150U U176C, for which the reverse-splicing fitness amounted to 0.0704.

Consider C82U A111G A120G A145G C169A U176C, for which the reverse-splicing fitness amounted to 0.0277.

In the case of C82G A111G A120G C150A C169G U176A, the reverse-splicing fitness turned out to be 0.0239.

With A111U C150A C169G U176C, the reverse-splicing fitness amounted to 0.0236.

For C82U A111G A145G C169G U176C, the reverse-splicing fitness was found to be 0.0236.

Turning to C82G A111C A145G C169G, the reverse-splicing fitness stood at 0.00916.

For the variant C82A A111C A120G A145G C150A C169G, the reverse-splicing fitness was determined as 0.00887.

With C82A A145C C150U C169U U176C, the reverse-splicing fitness turned out to be 0.00806.

With C82A A111U A145G C150U C169G, the reverse-splicing fitness came out at 0.00968.

Regarding C82G A111G A120C A145C C150U C169G U176C, the reverse-splicing fitness was 0.0152.

As to C82G A111C A120C A145G C150U C169G, the reverse-splicing fitness is 0.00759.

For A111G A120C C150A U176G, the reverse-splicing fitness came to 0.0222.

On to C82G A111G A120G A145G C150U C169A U176G, for which the reverse-splicing fitness was found to be 0.00616.

Regarding C82A A120U C150G, the reverse-splicing fitness amounted to 0.0131.

As for C82A A111C A120G C150U C169G U176G, the reverse-splicing fitness was found to be 0.00594.

Turning to A111G A120G A145C C150A U176C, the reverse-splicing fitness was found to be 0.0131.

For the variant C82U A111C A145G C150A, the reverse-splicing fitness was determined as 0.0325.

Turning to A111C A120G A145G C150G C169G U176A, the reverse-splicing fitness is 0.0101.

C82G A111U A120C A145G C150U C169G: the reverse-splicing fitness turned out to be 0.00889.

Take C82G A111G A145C C150A C169U U176C: the reverse-splicing fitness stood at 0.00961.

For A111U A120U A145G, the reverse-splicing fitness was 0.593.

For A111G C150G U176A, the reverse-splicing fitness turned out to be 0.0982.

With C82U A145U C150G C169G U176C, the reverse-splicing fitness is 0.00478.

Consider C82A A111C A120U A145U C169A U176G, for which the reverse-splicing fitness was 0.00264.

Regarding A120U A145C C150G C169U U176C, the reverse-splicing fitness turned out to be 0.00753.

As for C82A A111G A120C A145C C150A C169A U176A, the reverse-splicing fitness turned out to be 0.0178.

Turning to C82G A111G A120U A145C C150G, the reverse-splicing fitness stood at 0.00878.

Regarding C82U A111G A120C C150G C169U U176A, the reverse-splicing fitness turned out to be 0.00617.

As to A111G A120G A145G U176G, the reverse-splicing fitness was found to be 0.00937.

As to C82A A111C A145C C150A C169U, the reverse-splicing fitness was found to be 0.00921.
